Laboratory results reported in patent publication US20180072810A1 (published 2018).

Target: T1, cynomolgus PD-1 Fc fusion (cynomolgus monkey, UniProt B0LAJ3 25-170)
T1 construct: also called Cyno PD-1 (ELISA)
Experiment: ELISA on plate-bound cynomolgus PD-1 Fc fusion

T1 sequence (B0LAJ3 entry or part of it limits assumed, form in doubt): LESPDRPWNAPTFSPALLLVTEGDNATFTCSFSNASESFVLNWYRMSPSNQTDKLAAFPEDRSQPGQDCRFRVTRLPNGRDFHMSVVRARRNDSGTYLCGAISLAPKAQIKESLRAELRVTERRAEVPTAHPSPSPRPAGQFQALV

B1: Nivolumab (antibody, V domains shown)
VH: QVQLVESGGGVVQPGRSLRLDCKASGITFSNSGMHWVRQAPGKGLEWVAVIWYDGSKRYYADSVKGRFTISRDNSKNTLFLQMNSLRAEDTAVYYCATNDDYWGQGTLVTVSS
VL: EIVLTQSPATLSLSPGERATLSCRASQSVSSYLAWYQQKPGQAPRLLIYDASNRATGIPARFSGSGSGTDFTLTISSLEPEDFAVYYCQQSSNWPRTFGQGTKVEIK
Q: B1 was tested. Which EC50 did it give?
A: 0.07 nM
